According to patent US7435413 (dated 2008):

Biological target: T1, sTF (soluble human tissue factor 1-219) (human)
T1 chain: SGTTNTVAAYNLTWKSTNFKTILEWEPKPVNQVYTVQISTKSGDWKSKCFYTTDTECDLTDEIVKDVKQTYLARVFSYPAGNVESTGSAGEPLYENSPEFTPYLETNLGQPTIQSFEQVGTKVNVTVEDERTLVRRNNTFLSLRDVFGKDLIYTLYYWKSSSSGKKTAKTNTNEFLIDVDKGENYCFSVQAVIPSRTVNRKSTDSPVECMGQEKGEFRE
Assay: SPR

Kd: 1.7 nM
B1: 5G6 (antibody, V domains shown)
VH: EVLLQQSGPELVKPGASVKIPCKASGYTFTEYNMDWVKQSHGKSLEWIGDINPNNGNTIYNQKFKGKATLTVDKSSTTAYLELRSLTSEDTAVYFCARDHDYYFDFWGQGTTLTVSS
VL: DIQMTQTPASQSASLGESVTITCLASQTIDTWLAWYQQKPGKSPQLLIYAATSLADGVPSRFSGSGSGTKFSFKISSLQAEDFVSYYCQQPYSSPYTFGGGTKLELKR
